Assay results as given in patent publication US20230203170A1 (DRAGONBOAT BIOPHARMACEUTICAL SHANGHAI, published 2023).

T1: full-length mouse CSF-1R (RefSeq ID NP_001032948) expressed on HEK293F cells (mouse, UniProt P09581 20-977)
T1 construct: whole, on cells
T1 sequence (looked up): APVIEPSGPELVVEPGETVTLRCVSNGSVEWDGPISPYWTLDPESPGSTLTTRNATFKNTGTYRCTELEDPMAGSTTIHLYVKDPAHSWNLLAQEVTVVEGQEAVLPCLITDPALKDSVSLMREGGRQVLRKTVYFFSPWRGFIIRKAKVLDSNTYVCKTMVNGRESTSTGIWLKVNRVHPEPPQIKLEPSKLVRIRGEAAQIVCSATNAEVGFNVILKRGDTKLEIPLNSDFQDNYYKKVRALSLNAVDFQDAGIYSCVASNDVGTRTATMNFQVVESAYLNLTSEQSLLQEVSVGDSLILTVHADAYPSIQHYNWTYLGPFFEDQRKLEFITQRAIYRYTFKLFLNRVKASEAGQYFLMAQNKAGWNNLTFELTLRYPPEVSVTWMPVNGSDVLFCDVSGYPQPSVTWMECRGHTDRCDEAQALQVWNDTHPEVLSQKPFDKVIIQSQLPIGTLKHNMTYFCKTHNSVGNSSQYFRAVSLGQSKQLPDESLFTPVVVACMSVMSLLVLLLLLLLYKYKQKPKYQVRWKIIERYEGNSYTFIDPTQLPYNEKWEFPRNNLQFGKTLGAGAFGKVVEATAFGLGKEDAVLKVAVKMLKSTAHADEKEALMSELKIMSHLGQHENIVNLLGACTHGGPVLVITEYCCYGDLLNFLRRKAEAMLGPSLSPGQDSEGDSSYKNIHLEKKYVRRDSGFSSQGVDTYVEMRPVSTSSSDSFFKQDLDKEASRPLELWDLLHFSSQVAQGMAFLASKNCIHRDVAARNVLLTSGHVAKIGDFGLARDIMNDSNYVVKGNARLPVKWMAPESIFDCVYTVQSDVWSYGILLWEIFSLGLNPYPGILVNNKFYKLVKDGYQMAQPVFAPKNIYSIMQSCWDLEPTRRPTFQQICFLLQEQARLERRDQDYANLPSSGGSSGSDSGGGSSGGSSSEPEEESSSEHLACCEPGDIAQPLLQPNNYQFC


What was measured:
[1] = target: T2, human CSF1R-His (Acrobiosystem, CSR-H5228) (human, UniProt P07333 20-512, limits assumed); test: SPR Biacore T200; IgG captured by anti-human Fc, CSF1R-His as analyte, 1:1 fit
T2 construct: Bought protein; The catalogue number is printed only for the SPR assay; also called human CSF-1R protein; not shown: His tag
From the text: The specific binding affinity and kinetics of antibodies against human CSF-1R protein were examined by surface plasmon resonance (SPR) analysis using a Biacore™ T200 instrument (GE, USA) according to the manufacturer’s guidelines. Anti-Human IgG (Fc) antibody (Sigma, I2136) was immobilized on CM5 chips according to the instructions of Amine Coupling kit (GE Biacore #BR-1000-50). The immobilized Anti-Human IgG (Fc) antibody was used to capture the antibodies. […] The running buffer used was 0.01 M HEPES, 0.15 M NaCl, 3 mM EDTA, 0.05% (v/v) surfactant P20, pH 7.4. Corresponding controls were conducted in each case using a blank flow cell with no protein captured for “background” subtraction. The association and dissociation curves were fitted to a 1:1 Langmuir binding model using Biacore T200 Evaluation Software (GE, USA) according to the manufacturer’s guidelines.

[2] = target: T1, full-length mouse CSF-1R (RefSeq ID …); test: flow cytometry on HEK293F cells transiently expressing full-length mouse CSF-1R (IRES-EGFP vector), Alexa Fluor 647 anti-human Fc detection
Description: (§1) The specificities of the antibodies were also assessed against human, monkey and mouse CSF-1R that are transiently expressed on the surface of HEK293F cells (FIG. 1). Briefly, HEK293F cells were transfected with a plasmid expressing full-length human, monkey (RefSeq ID XP_015307616) or mouse (RefSeq ID NP_001032948) CSF-1R from a bicistronic IRES vector. EGFP was used to identify the transfected cells. After 40 hrs, the transfected cells were harvested and then washed once with 1% PBSA buffer (1% (w/v) BSA in 1×PBS). Cells were then incubated with various IgGs (each at 100 nM) for 1 hr at room temperature, washed once with pre-chilled 1% PBSA buffer, and incubated with Alexa Fluor® 647 conjugated mouse anti-human Fc antibodies for 30 min on ice. The cells were washed once prior to analysis by flow cytometry (Beckman® CytoFlex).

[3] = target: T3, full-length human CSF-1R expressed on cells (human, UniProt P07333 20-972); test: flow cytometry on HEK293F cells transiently expressing full-length human CSF-1R (IRES-EGFP vector), IgG at 100 nM, Alexa Fluor 647 anti-human Fc detection
T3 construct: whole, on cells
Description: as §1

[4] = target: T1, full-length mouse CSF-1R (RefSeq ID …); test: flow cytometry on HEK293F cells transiently expressing full-length mouse CSF-1R (IRES-EGFP vector), IgG at 100 nM, Alexa Fluor 647 anti-human Fc detection
Description: as §1

[5] = target: T4, full-length monkey CSF-1R (RefSeq ID XP_015307616) expressed on HEK293F cells (monkey, UniProt A0A2K5WG90 20-976); test: flow cytometry on HEK293F cells transiently expressing full-length monkey CSF-1R (IRES-EGFP vector), IgG at 100 nM, Alexa Fluor 647 anti-human Fc detection
T4 sequence (A0A2K5WG90 entry or part of it limits assumed, form in doubt): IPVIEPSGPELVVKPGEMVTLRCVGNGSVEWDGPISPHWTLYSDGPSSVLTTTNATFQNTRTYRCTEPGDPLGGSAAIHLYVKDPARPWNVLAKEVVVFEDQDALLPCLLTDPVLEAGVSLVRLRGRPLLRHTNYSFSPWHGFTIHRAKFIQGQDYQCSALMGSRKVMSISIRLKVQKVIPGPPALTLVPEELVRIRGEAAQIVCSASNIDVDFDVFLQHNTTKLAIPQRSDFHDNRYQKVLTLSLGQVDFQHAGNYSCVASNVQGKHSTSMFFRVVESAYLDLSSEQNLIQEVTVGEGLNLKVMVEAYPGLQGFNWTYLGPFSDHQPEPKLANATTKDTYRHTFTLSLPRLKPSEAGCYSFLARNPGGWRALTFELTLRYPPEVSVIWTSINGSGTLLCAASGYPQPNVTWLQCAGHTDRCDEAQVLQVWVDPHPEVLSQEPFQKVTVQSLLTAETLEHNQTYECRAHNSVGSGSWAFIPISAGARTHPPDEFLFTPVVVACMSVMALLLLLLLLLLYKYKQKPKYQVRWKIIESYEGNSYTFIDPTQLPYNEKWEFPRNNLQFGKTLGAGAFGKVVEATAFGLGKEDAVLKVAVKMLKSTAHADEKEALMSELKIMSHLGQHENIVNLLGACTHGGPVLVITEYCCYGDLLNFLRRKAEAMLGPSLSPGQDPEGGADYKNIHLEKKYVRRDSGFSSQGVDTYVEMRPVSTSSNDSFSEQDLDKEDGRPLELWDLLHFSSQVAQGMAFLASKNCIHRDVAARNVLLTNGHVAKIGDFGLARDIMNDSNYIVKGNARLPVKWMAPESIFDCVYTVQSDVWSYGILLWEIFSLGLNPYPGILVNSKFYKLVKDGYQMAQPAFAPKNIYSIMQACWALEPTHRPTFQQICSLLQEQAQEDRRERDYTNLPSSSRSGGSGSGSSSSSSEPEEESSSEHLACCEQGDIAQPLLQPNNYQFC
Description: as §1

[6] = target: T1, full-length mouse CSF-1R (RefSeq ID …); test: flow cytometry on HEK293F cells transiently expressing full-length mouse CSF-1R (IRES-EGFP vector), Alexa Fluor 647 anti-human Fc detection [Conti.]
Description: as §1

[7] = target: T3, full-length human CSF-1R expressed on …; test: flow cytometry on HEK293F cells transiently expressing full-length human CSF-1R (IRES-EGFP vector), IgG at 100 nM, Alexa Fluor 647 anti-human Fc detection [Conti.]
Description: as §1

[8] = target: T4, full-length monkey CSF-1R (RefSeq ID …); test: flow cytometry on HEK293F cells transiently expressing full-length monkey CSF-1R (IRES-EGFP vector), IgG at 100 nM, Alexa Fluor 647 anti-human Fc detection [Conti.]
Description: as §1

Kd [1] [nM]	binding result [2]	percent of cells in the upper right quadrant (APC Ab binding positive, FITC Ag display positive) [3] [%]	percent of cells in the upper right quadrant (APC Ab binding positive, FITC Ag display positive) [4] [%]	percent of cells in the upper right quadrant (APC Ab binding positive, FITC Ag display positive) [5] [%]	binding result [6]	percent of cells in the upper right quadrant (APC Ab binding positive, FITC Ag display positive) [7] [%]	percent of cells in the upper right quadrant (APC Ab binding positive, FITC Ag display positive) [8] [%]	Binder
0.6	no binding (tested: 100 nM)	40.2	3.71	29.5				TY21371 (antibody, V domains shown, Human IgG4 isotype with S241P mutation (Uniprot P01861); Its IgG1 format is called TY22179 (used only in PK/PD)) VH: EVQLVESGGGLVQPGGSLRLSCAASGFTFSGYAIHWVRQAPGKGLEWVSVISGYGSSTYYADSVKGRFTISRDNSKNTLYLQLNSLRAEDTAVYYCARDPGVGGFDVWGQGTLVTVSS VL: DIQLTQSPSSLSASVGDRVTITCRASQSVRRRFLAWYQQKPGKAPKLLIYDASSLESGVPSRFSGSGSGTDFTLTISSLQPEDFATYYCQQYYPIPRTFGQGTKVEIK
1.61	no binding (tested: 100 nM)	37.4		33.7				TY21372 (antibody, human IgG4, V domains shown, Human IgG4 isotype with S241P mutation) VH: EVQLVESGGGLVQPGGSLRLSCAASGYTFSDYAIHWVRQAPGKGLEWVSVISGYGSTTYYADSVKGRFTISRDNSKNTLYLQLNSLRAEDTAVYYCARASSYGGFDYWGQGTLVTVSS VL: DIQLTQSPSSLSASVGDRVTITCRASQDVSTAVAWYQQKPGKAPKLLIYDASNRATGIPSRFSGSGSGTDFTLTISSLQPEDFATYYCQQYYPWPWTFGQGTKVEIK
3.51					no binding (tested: 100 nM)			TY21433 (antibody, human IgG4, V domains shown, Human IgG4 isotype with S241P mutation) VH: EVQLVESGGGLVQPGGSLRLSCAASGFTFSNYAIHWVRQAPGKGLEWVSVISGYGSTTYYADSVKGRFTISRDNSKNTLYLQLNSLRAEDTAVYYCARSTVATPFAYWGQGTLVTVSS VL: DIQLTQSPSSLSASVGDRVTITCKASQDVRTAVAWYQQKPGKAPKLLIYAASTLQSGVPSRFSGSGSGTDFTLTISSLQPEDFATYYCQQSYPWPWTFGQGTKVEIK
35.5	no binding (tested: 100 nM)	43.8	0.081	32.6				TY21375 (antibody, human IgG4, V domains shown, Human IgG4 isotype with S241P mutation) VH: EVQLVESGGGLVQPGGSLRLSCAASGFTFSDYAIHWVRQAPGKGLEWVSVISGYGGSTYYADSVKGRFTISRDNSKNTLYLQLNSLRAEDTAVYYCARSGGGGYYFDYWGQGTLVTVSS VL: DIQLTQSPSSLSASVGDRVTITCRASQGIRSYLAWYQQKPGKAPKLLIYAASSLQSGVPSRFSGSGSGTDFTLTISSLQPEDFATYYCQQSYHWPLTFGQGTKVEIK
9.86					no binding (tested: 100 nM)	41.3	31.3	TY21428 (antibody, human IgG4, V domains shown, Human IgG4 isotype with S241P mutation) VH: EVQLVESGGGLVQPGGSLRLSCAASGFTFSNYGIHWVRQAPGKGLEWVSVISGYGGSTYYADSVKGRFTISRDNSKNTLYLQLNSLRAEDTAVYYCARRGLTSTYFDYWGQGTLVTVSS VL: DIQLTQSPSSLSASVGDRVTITCRASQSVGSWLAWYQQKPGKAPKLLIYDASNLETGVPSRFSGSGSGTDFTLTISSLQPEDFATYYCQQSYPIPPTFGQGTKVEIK
					no binding (tested: 100 nM)			TAC2188 (antibody, human IgG4, V domains shown) VH: QVQLVQSGAEVKKPGASVKVSCKASGYTFTSYDISWVRQAPGQGLEWMGVIWTDGGTNYAQKLQGRVTMTTDTSTSTAYMELRSLRSDDTAVYYCARDQRLYFDVWGQGTTVTVSS VL: DIQMTQSPSSLSASVGDRVTITCRASEDVNTYVSWYQQKPGKAPKLLIYAASNRYTGVPSRFSGSGSGTDFTLTISSLQPEDFATYYCQQSFSYPTFGQGTKLEIK
0.67					no binding (tested: 100 nM)			TAC2205 (antibody, human IgG4, V domains shown) VH: QVQLVQSGAEVKKPGSSVKVSCKASGYTFTDNYMIWVRQAPGQGLEWMGDINPYNGGTTFNQKFKGRVTITADKSTSTAYMELSSLRSEDTAVYYCARESPYFSNLYVMDYWGQGTLVTVSS VL: EIVLTQSPATLSLSPGERATLSCKASQSVDYDGDNYMNWYQQKPGQAPRLLIYAASNLESGIPARFSGSGSGTDFTLTISSLEPEDFAVYYCHLSNEDLSTFGGGTKVEIK
23.6	no binding (tested: 100 nM)	37.4	0.77					TY21373 (antibody, human IgG4, V domains shown, Human IgG4 isotype with S241P mutation) VH: EVQLVESGGGLVQPGGSLRLSCAASGYSISSGYYWGWIRQAPGKGLEWVSSISGYGSSTYYADSVKGRFTISRDNSKNTLYLQLNSLRAEDTAVYYCARGAYGYFDYWGQGTLVTVSS VL: DIQLTQSPSSLSASVGDRVTITCPASSSVSYIHWYQQKPGKAPKLLIYDASNLETGVPSRFSGSGSGTDFTLTISSLQPEDFATYYCQQYYPWPWTFGQGTKVEIK
3.18					no binding (tested: 100 nM)		34.2	TY21429 (antibody, human IgG4, V domains shown, Human IgG4 isotype with S241P mutation) VH: EVQLVESGGGLVQPGGSLRLSCAASGYTFSNYAIHWVRQAPGKGLEWVSAISGTGSSTYYADSVKGRFTISRDNSKNTLYLQLNSLRAEDTAVYYCARHSHSRYAFDYWGQGTLVTVSS VL: DIQLTQSPSSLSASVGDRVTITCRASHVRTAVAWYQQKPGKAPKLLIYDASNLETGVPSRFSGSGSGTDFTLTISSLQPEDFATYYCQQYYPWPWTFGQGTKVEIK
